The assay deals with LS-Rg, chimeric protein of the extracellular domain of human L-selectin joined to the Fc domain of a human G2 immunoglobulin (human) (UniProt P14151). The experiment in a line: competition of unlabeled antibody against radiolabeled 2'-F RNA ligand LF1807 on purified LS-Rg.
Chain of LS-Rg, chimeric protein of the extracellular domain of human L-selectin joined to the Fc domain of a human G2 immunoglobulin (human) (P14151 39-332, stated change not applied): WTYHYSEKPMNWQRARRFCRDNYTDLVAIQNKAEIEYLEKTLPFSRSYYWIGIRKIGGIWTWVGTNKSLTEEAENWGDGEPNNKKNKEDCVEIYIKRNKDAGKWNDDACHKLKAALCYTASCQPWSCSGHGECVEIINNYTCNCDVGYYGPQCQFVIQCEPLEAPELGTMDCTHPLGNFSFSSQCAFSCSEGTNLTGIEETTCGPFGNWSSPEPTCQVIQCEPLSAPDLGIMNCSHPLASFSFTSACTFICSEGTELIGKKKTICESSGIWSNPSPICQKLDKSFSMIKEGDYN

“DREG-56, L-selectin specific blocking monoclonal antibody” showed a concentration for complete inhibition of 300 nM.
